# Test: soluble on expression in E. coli; label from the status in PepcDB or PDB records
row,Sequence,soluble on expression in E. coli
1,GMELTALDKLEIMELAARFEMSLDKEDVENYLATFASDGALQGFWGIAKGKEELRQGFYAMLDTFARGKRHCSSNAIIQGNYDEATMESYLTVVNREDLNRAGSAFVKDQVRKINGKWYLILRQIEVDPSLPLLQQSQQAGANA,soluble
2,GMIQVPASFDIQGHRGCRGLLPENTIAAFTKALLLGVTTLEFDLVISKDNRVVVSHDTFFHHEITMMVDGEDVTEANEKNFNLYAMNYADIKEIDVGMKTHPRFKSQKKVPAVKPLFRELIETAEKLSAKIQYNGEIKSTVEGDNIDHPNIALFCDLVVAEIKKAHITDRFTLQSFDVRALEYMHSQYPDIKLSYLVETKGTLKKQLEKLSFTPAVYSPDVTLVSKKDIDAAHKLGMRVIPWTVNTKEEIETLISLGVDGIITDYPDLFFEK,soluble
3,GMIRLLYLLVKPAGMSDETFRAECLRHYEMSHDVPGLHKYEVRLVAEQPTDTHVPFFDIGHVDAIGECWFKDDAAYATYMASDIRKAWFEHGKTFIGQLKPFRTAPVAGDEPAS,soluble
4,GMKFSKFGQKFTQPTGISQLMDDLGDALKSDQPVNMLGGGNPAKIDAVNELFLETYKALGNDNDTGKANSSAIISMANYSNPQGDSAFIDALVGFFNRHYDWNLTSENIALTNGSQNAFFYLFNLFGGAFVNEHSQDKESKSVDKSILLPLTPEYIGYSDVHVEGQHFAAVLPHIDEVTHDGEEGFFKYRVDFEALENLPALKEGRIGAICCSRPTNPTGNVLTDEEMAHLAEIAKRYDIPLIIDNAYGMPFPNIIYSDAHLNWDNNTILCFSLSKIGLPGMRTGIIVADAKVIEAVSAMNAVVNLAPTRFGAAIATPLVANDRIKQLSDNEIKPFYQKQATLAVKLLKQALGDYPLMIHKPEGAIFLWLWFKDLPISTLDLYERLKAKGTLIVPSEYFFPGVDVSDYQHAHECIRMSIAADEQTLIDGIKVIGEVVRELYDNK,soluble
5,GMKSAPDWIAHPDTPYLLIDEAKLKSNINYLKQRVESLGSHLRPHLKTLRTLEAAGYLLDSKSAPATVSTLAEAEAYAKAGYTDLLYAVGIAPAKLKRVAALRQQGINLHILLDNITQAQAVVDYAAEFGQDFSVFIEIDSDDHRGGIKPSDSKLLTIAKTLGEHFTGLMTHAGGSYACNTEQGLKNFAKQECDAVRIARNNLETAGIHCAITSVGSTPTAHFGEDFSDISEVRAGVYTTFDLVMKNIGVCDFSHIAMSVVTTVIGHNKEKNWLLTDSGWMALSRDSGTAGQNRDFGYGQVCKIDGSVLDGLCVNSTSQEHGVIELSDAYQLEDFPVGHQLRIMPNHACATAAMHPVYHVLMSDGSHNTWQRITGW,soluble
6,GMKTQITTRDLVLEFIHALNTENFPAAKKRLNENFTFNGPMGHREGSERYMNDMEKMKFKYVVHKMFEEGNDVCLIYDINMNGKTIAASGLYHLEKGEITSLHVYFDPRPLFEE,soluble
7,GMMTDEARAKLAAIPMLAGYTGPLERLGGLTNLVFRAGDLCLRIPGKGTEEYINRANEAVAAREAAKAGVSPEVLHVDPATGVMVTRYIAGAQTMSPEKFKTRPGSPARAGEAFRKLHGSGAVFPFRFELFAMIDDYLKVLSTKNVTLPAGYHDVVREAGGVRSALAAHPLPLAACHCDPLCENFLDTGERMWIVDWEYSGMNDPLWDLGDLSVEGKFNANQDEELMRAYFGGEARPAERGRVVIYKAMCDLLWTLWGLIQLANDNPVDDFRAYADGRFARCKALMETPEFSRHLAAVRMG,soluble
8,GMNNRELYGNIRDVYHLLQKNLDKAIEQYDISYVQFGVIQVLAKSGKVSMSKLIENMGCVPSNMTTMIQRMKRDGYVMTEKNPNDQRETLVYLTKKGEETKKQVDVQYSDFLKENCGCFTKEEEGILEDLLLKWKKHLN,soluble
9,GMNVNFINPFLQSLLNVISTMASLELTPGKPQIKTDNLAKGDVSGLIGMVGPQTKGSLSITFEQKLVLQIMQNMLGENPGKINEEVTDLVGEITNMVTGGAKNLLGQKGYEFEMATPMVVSGQGHTISHKANGTKIIMPFTSSYGTAFIEVCFES,soluble
10,GMQKPHLLITSAGRRAKLVEYFVKEFKTGRVSTADCSPLASALYMADQHYIVPKIDEVEYIDHLLTLCQDEGVTALLTLIDPELGLLAQATERFQAIGVTVIVSPYAACELCFDKYTMYEYCLRQGIAHARTYATMASFEEALAAGEVQLPVFVKPRNGSASIEVRRVETVEEVEQLFSKNTDLIVQELLVGQELGVDAYVDLISGKVTSIFIKEKLTMRAGETDKSRSVLRDDVFELVEHVLDGSGLVGPLDFDLFDVAGTLYLSEINPRFGGGYPHAYECGVNFPAQLYRNLMHEINVPQIGQYLDDIYMLKHDTVTLISAAELQKIKR,soluble
11,GMSAGKTVVIALGGNAMLQAKEKGDYDTQRKNVEIAASEIYKIHKAGYKVVLTSGNGPQVGAIKLQNQAAAGVSPEMPLHVCGAMSQGFIGYMMSQAMDNVFCANNEPANCVTCVTQTLVDPKDQAFTNPTKPVGRFYTEQEAKDLMAANPGKILREDAGRGWRVVVPSPRPLEIVEYGVIKTLIDNNVLVICTNGGGIPCKRENKVISGVDAVIDKDLATSLLAKTLNSDYLMILTDVLNACINYKKPDERKLEEIKLSEILALEKDGHFAAGSMGPKVRAAIEFTQATGKMSIITSLSTAVDALNGKCGTRIIKD,soluble
12,GMSETITFPPLMTGEAAGPGQDPFDLACQKAELGVDAGLVVYELGTDVLRAALVLAPEVPLAKAMAMLPVCGVGFQNALGALAPPEVAVHLDWNGALRINGARCGRLRIAASTDDPDTQPDWLVVGLDLPLWPEGDGGETPDETALYAEGCADVAAPRLLESWARHCLHWINRWDEGELETIHGEWRGLAHGMGEARTEAGRSGTFLGVDEDFGMLLRDETTTHLIPLTTVLVQD,soluble
13,GMSKLSLIQQLKQQKLSVGILSANWLQLNEEVTTLLENQINVLHFDIADGQFSSLFTVGAIGIKYFPTHCFKDVHLMVRNQLEVAKAVVANGANLVTLQLEQYHDFALTIEWLAKQKTTYANQVYPVLIGACLCPETPISELEPYLDQIDVIQLLTLDPRNGTKYPSELILDRVIQVEKRLGNRRVEKLINIDGSMTLELAKYFKQGTHQIDWLVSGSALFSGELKTNLKVWKSSIM,soluble
14,GMSPQSMLTSPQHPRRTTMVISHGTLSASAEHAAHLRQLLVHIAQATRQEDGCLLYLVSEDLSQPGHFLITEHWDNLGAMHTHLALPGVTQAIDALKHLNVTDLKITAYEAGEAINIMG,soluble
15,GMSSKAEKDIKWGIAPIGWRNDDIPSIGKDNNLQQLLSDIVVAGFQGTEVGGFFPGPEKLNYELKLRNLEIAGQWFSSYIIRDGIEKASEAFEKHCQYLKAINAPVAVVSEQTYTIQRSDTANIFKDKPYFTDKEWDEVCKGLNHYGEIAAKYGLKVAYHHHMGTGIQTKEETDRLMANTDPKLVGLLYDTGHIAVSDGDYMALLNAHIDRVVHVHFKDVRRSKEEECRAKGLTFQGSFLNGMFTVPGDGDLDFKPVYDKLIANNYKGWIVVEAEQDPSKANPLEMAQIAHRYIKQHLIEN,soluble
16,GMSSNVSHFEGTRPVADQQRFDTEALEAWMRQHVEGFAGPLSVEQFKGGQSNPTFKLVTPGQTYVMRAKPGPKSKLLPSAHAIEREYRVMDALAGTDVPVAKMYALCEDESVIGRAFYIMEFVSGRVLWDQSLPGMSPAERTAIYDEMNRVIAAMHTVDYQAIGLGDYGKPGNYFQRQIERWTKQYKLSETESIPAMDSLMDWLPQHIPQEDADLTSIVHGDYRLDNLMFHPTEPRVLAVLDWELSTLGHPMGDFGYHCMSWHIAPGQFRGIAGLDHAALGIPDEASYRKLYEQRTGRPITGDWNFYLAFSMFRIAGILQGIMKRVVDGTASSAQALDAGKRARPMAEMGWEYAKKAKQ,soluble
17,GMSVKVSVDDIDGITEVLNVYMNAAESGTGEEMSAAFHKDATIFGYVGDKLAFNGPIKDLYDWHNSNGPAKNVQSRITNIDIVGTVAHARVEAENWTNFKFSDLFLLLKLDGKWTIVNKVFHLHA,soluble
18,GMTLTRDSLLTLEAYAKVRRQEHARVIAHKKRRAVSIGNHLRLLFEDETTIRYQIHEMLHIEKIFDEDGIQAELDAYLPLVPDGSNLKATLQIEYENETQRRAALARLVGIEDRVFLRVDDEAPVYAIADEDLERDTAEKTSAVHFLRFELGDAMKAKLKAGAPLSIGCDHPHYPIQAARIDPDVAASLAGDLD,soluble

# Source: the DeepSol protein solubility set
